# US20140227270A1
# Target: Human CXCR7 (human) (UniProt P25106)
# Assay: competition FACS, 4 nM biotinylated SDF-1 on HEK-hCXCR7 cells
# Chain of Human CXCR7 (human) (P25106 whole entry): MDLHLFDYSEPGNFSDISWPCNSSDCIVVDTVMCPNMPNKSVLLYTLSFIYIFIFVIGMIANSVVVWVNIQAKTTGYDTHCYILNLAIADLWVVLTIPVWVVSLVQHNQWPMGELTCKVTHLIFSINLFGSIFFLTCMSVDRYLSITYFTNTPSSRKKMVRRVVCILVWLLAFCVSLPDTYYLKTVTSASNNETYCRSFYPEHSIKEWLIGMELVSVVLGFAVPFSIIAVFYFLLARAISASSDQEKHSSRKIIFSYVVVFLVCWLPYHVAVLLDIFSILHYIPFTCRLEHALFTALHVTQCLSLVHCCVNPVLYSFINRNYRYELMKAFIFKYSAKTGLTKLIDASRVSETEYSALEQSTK
substance,measurement,value
Mab 8F11 (Biolegend) (antibody),% competition relative to unlabelled SDF-1,> 95%
